In US20250011363A1, “OPTIMIZED SHORTENED PEPTIDE THAT BINDS TO ACETYLCHOLINE RECEPTOR, AND USE THEREOF” (SKINMED CO., LTD., priority 2021, published 2025) one finds Binding affinity (RU) data, which are given here for 72 molecules.

The assay concerns the target acetylcholine receptor. In words: SPR, AchR on chip, peptide 10 uM. For orientation: SPR reads the build-up and loss of mass on a sensor chip optically.

B1: 5mer-209 (peptide)
peptide: RGVRR
For B1, the Binding affinity (RU) amounted to 78 RU.

B2: 5mer-515 (peptide)
peptide: RGQRK
The molecule B2 registered a Binding affinity (RU) of 56 RU.

B3: 5mer-216 (peptide)
peptide: KWVRR
As for B3, the Binding affinity (RU) was determined as 56 RU.

B4: 5mer-43 (peptide)
peptide: KSFYR
B4 had a Binding affinity (RU) of 53 RU.

B5: 5mer-199 (peptide)
peptide: KRYQR
Take B5: the Binding affinity (RU) stood at 84 RU.

B6: 5mer-211 (peptide)
peptide: RLYYR
Molecule B6 registered a Binding affinity (RU) of 73 RU.

B7: 5mer-204 (peptide)
peptide: RQFQR
Take B7: the Binding affinity (RU) was 84 RU.

B8: 5mer-45 (peptide)
peptide: RVFQR
In the case of B8, the Binding affinity (RU) was determined as 86 RU.

B9: 5mer-215 (peptide)
peptide: RQYRR
Molecule B9 gave a Binding affinity (RU) of 79 RU.

B10: 5mer-214 (peptide)
peptide: KQQCK
The molecule B10 displayed a Binding affinity (RU) of 79 RU.

B11: 5mer-339 (peptide)
peptide: KWVRK
On to B11, for which the Binding affinity (RU) was determined as 87 RU.

B12: 5mer-337 (peptide)
peptide: KGRSR
The molecule B12 gave a Binding affinity (RU) of 67 RU.

B13: 5mer-334 (peptide)
peptide: KRFYK
For the molecule B13, the Binding affinity (RU) amounted to 64 RU.

B14: 5mer-503 (peptide)
peptide: KRVSK
Consider B14, for which the Binding affinity (RU) was found to be 61 RU.

B15: 5mer-206 (peptide)
peptide: KLQLR
Molecule B15 yielded a Binding affinity (RU) of 57 RU.

B16: 5mer-32 (peptide)
peptide: RQLSR
On to B16, for which the Binding affinity (RU) worked out at 75 RU.

B17: 5mer-34 (peptide)
peptide: KRIRK
Consider B17, for which the Binding affinity (RU) is 82 RU.

B18: 5mer-499 (peptide)
peptide: RVLTK
In the case of B18, the Binding affinity (RU) worked out at 76 RU.

B19: 5mer-343 (peptide)
peptide: KSFSR
B19 returned a Binding affinity (RU) of 60 RU.

B20: 5mer-47 (peptide)
peptide: KGVRR
Consider B20, for which the Binding affinity (RU) stood at 70 RU.

B21: 5mer-348 (peptide)
peptide: KRQTK
B21 registered a Binding affinity (RU) of 80 RU.

B22: 5mer-210 (peptide)
peptide: KVYYR
Consider B22, for which the Binding affinity (RU) came out at 67 RU.

B23: 5mer-46 (peptide)
peptide: KRQCK
B23 came in with a Binding affinity (RU) of 76 RU.

B24: 5mer-347 (peptide)
peptide: KRICR
In the case of B24, the Binding affinity (RU) came out at 78 RU.

B25: 5mer-512 (peptide)
peptide: RLYLK
In turn, B25 showed a Binding affinity (RU) of 70 RU.

B26: 5mer-336 (peptide)
peptide: KSVSR
Take B26: the Binding affinity (RU) is 83 RU.

B27: 5mer-505 (peptide)
peptide: RQIYR
For the molecule B27, the Binding affinity (RU) came to 71 RU.

B28: 5mer-517 (peptide)
peptide: KGYTR
Take B28: the Binding affinity (RU) amounted to 70 RU.

B29: 5mer-39 (peptide)
peptide: KQVSR
As to B29, the Binding affinity (RU) was found to be 67 RU.

B30: 5mer-201 (peptide)
peptide: RWIYR
Turning to B30, the Binding affinity (RU) turned out to be 62 RU.

B31: 5mer-38 (peptide)
peptide: RGYCK
Consider B31, for which the Binding affinity (RU) is 53 RU.

B32: 5mer-346 (peptide)
peptide: KGISK
B32 yielded a Binding affinity (RU) of 57 RU.

B33: 5mer-35 (peptide)
peptide: RWQYK
Consider B33, for which the Binding affinity (RU) was determined as 80 RU.

B34: 5mer-212 (peptide)
peptide: KQQYK
Consider B34, for which the Binding affinity (RU) was determined as 64 RU.

B35: 5mer-511 (peptide)
peptide: KSLSR
As for B35, the Binding affinity (RU) amounted to 56 RU.

B36: 5mer-506 (peptide)
peptide: RGRLR
The molecule B36 had a Binding affinity (RU) of 51 RU.

B37: 5mer-205 (peptide)
peptide: RWYYR
For B37, the Binding affinity (RU) amounted to 75 RU.

B38: 5mer-213 (peptide)
peptide: RQYTK
The molecule B38 showed a Binding affinity (RU) of 83 RU.

B39: 5mer-41 (peptide)
peptide: KVISK
The molecule B39 had a Binding affinity (RU) of 82 RU.

B40: 5mer-335 (peptide)
peptide: KSLTR
B40 yielded a Binding affinity (RU) of 56 RU.

B41: 5mer-48 (peptide)
peptide: RVYLR
For the molecule B41, the Binding affinity (RU) was 62 RU.

B42: 5mer-37 (peptide)
peptide: RRLSR
B42 displayed a Binding affinity (RU) of 72 RU.

B43: 5mer-513 (peptide)
peptide: RWYYK
As to B43, the Binding affinity (RU) is 83 RU.

B44: 5mer-341 (peptide)
peptide: RWYRR
B44 yielded a Binding affinity (RU) of 52 RU.

B45: 5mer-202 (peptide)
peptide: KWYRR
In turn, B45 yielded a Binding affinity (RU) of 65 RU.

B46: 5mer-516 (peptide)
peptide: KWQTR
B46 displayed a Binding affinity (RU) of 83 RU.

B47: 5mer-217 (peptide)
peptide: KLQRR
Turning to B47, the Binding affinity (RU) was 72 RU.

B48: 5mer-514 (peptide)
peptide: KLLLK
On to B48, for which the Binding affinity (RU) was determined as 52 RU.

B49: 5mer-500 (peptide)
peptide: KSLQK
B49 came in with a Binding affinity (RU) of 63 RU.

B50: 5mer-342 (peptide)
peptide: KVYQR
On to B50, for which the Binding affinity (RU) was 69 RU.

B51: 5mer-208 (peptide)
peptide: KLICR
On to B51, for which the Binding affinity (RU) is 80 RU.

B52: 5mer-510 (peptide)
peptide: RQLSK
Molecule B52 registered a Binding affinity (RU) of 71 RU.

B53: 5mer-207 (peptide)
peptide: KQVRR
Molecule B53 came in with a Binding affinity (RU) of 72 RU.

B54: 5mer-203 (peptide)
peptide: RQLTR
Turning to B54, the Binding affinity (RU) was 78 RU.

B55: 5mer-501 (peptide)
peptide: KLQRK
B55: the Binding affinity (RU) was 78 RU.

B56: 5mer-200 (peptide)
peptide: KRVRR
In turn, B56 yielded a Binding affinity (RU) of 55 RU.

B57: 5mer-333 (peptide)
peptide: RVLQR
B57 gave a Binding affinity (RU) of 67 RU.

B58: 5mer-504 (peptide)
peptide: KQIQR
Regarding B58, the Binding affinity (RU) turned out to be 72 RU.

B59: 5mer-502 (peptide)
peptide: RRISR
The molecule B59 had a Binding affinity (RU) of 84 RU.

B60: 5mer-44 (peptide)
peptide: RSRTR
For the molecule B60, the Binding affinity (RU) was 59 RU.

B61: 5mer-508 (peptide)
peptide: KGLQK
Consider B61, for which the Binding affinity (RU) came out at 67 RU.

B62: 5mer-340 (peptide)
peptide: KGYRR
On to B62, for which the Binding affinity (RU) was 51 RU.

B63: 5mer-509 (peptide)
peptide: RVQRK
On to B63, for which the Binding affinity (RU) was determined as 61 RU.

B64: 5mer-33 (peptide)
peptide: RRISK
Take B64: the Binding affinity (RU) was 59 RU.

B65: 5mer-338 (peptide)
peptide: RWILR
As for B65, the Binding affinity (RU) came to 61 RU.

B66: 5mer-344 (peptide)
peptide: KQFQR
Consider B66, for which the Binding affinity (RU) was determined as 52 RU.

B67: 5mer-507 (peptide)
peptide: KWVQK
On to B67, for which the Binding affinity (RU) is 84 RU.

B68: 5mer-36 (peptide)
peptide: RRLQK
On to B68, for which the Binding affinity (RU) stood at 60 RU.

B69: 5mer-42 (peptide)
peptide: RQRLR
Regarding B69, the Binding affinity (RU) was 83 RU.

B70: 5mer-332 (peptide)
peptide: RRYCR
On to B70, for which the Binding affinity (RU) came out at 85 RU.

B71: 5mer-345 (peptide)
peptide: RQQRR
Molecule B71 yielded a Binding affinity (RU) of 86 RU.

B72: 5mer-40 (peptide)
peptide: KSVCR
B72: the Binding affinity (RU) was found to be 67 RU.
